In data set [1] the target is PARP2 (UniProt Q9UGN5-2 1-570). Briefly: EMSA. Background: A gel shift assay detects complexes by their altered migration in electrophoresis.
Data set [2] deals with PARP2 (human (from the printed UniProt …, UniProt Q9UGN5-2 1-570)). Briefly: cryo-EM structure.

The results in this text go back to publication PMC7529888 (Nature, 2020).

B1: hairpin DNA 5'P (structured_DNA)
DNA: TCGCGGCAGCTGGTGCTGCCGCGA
modifications: 5' phosphate
In the case of B1, in the data set with PARP2 [1], the binding result is “binds”.

B2: HPF1 (natural protein)
chain: MVGGGGKRRPGGEGPQCEKTTDVKKSKFCEADVSSDLRKEVENHYKLSLPEDFYHFWKFCEELDPEKPSDSLSASLGLQLVGPYDILAGKHKTKKKSTGLNFNLHWRFYYDPPEFQTIIIGDNKTQYHMGYFRDSPDEFPVYVGINEAKKNCIIVPNGDNVFAAVKLFLTKKLREITDKKKINLLKNIDEKLTEAARELGYSLEQRTVKMKQRDKKVVTKTFHGAGLVVPVDKNDVGYRELPETDADLKRICKTIVEAASDEERLKAFAPIQEMMTFVQFANDECDYGMGLELGMDLFCYGSHYFHKVAGQLLPLAYNLLKRNLFAEIIEEHLANRSQENIDQLAA
Turning to B2, the binding result in the data set with PARP2 [2] is listed as “binds”.
